The source of these data is US20210198377A1 (XDCEXPLORER SHANGHAI, published 2021).

T1: human TPBG (full length, on cells) (human, UniProt Q13641 32-420)
T1 construct: whole, on cells; On transfected HEK293 or CHO-K1 cells; for the tumour lines NCI-H1568 and NCI-H1299 it is the cells' own TPBG; also called hTPBG; 5T4
T1 sequence (looked up): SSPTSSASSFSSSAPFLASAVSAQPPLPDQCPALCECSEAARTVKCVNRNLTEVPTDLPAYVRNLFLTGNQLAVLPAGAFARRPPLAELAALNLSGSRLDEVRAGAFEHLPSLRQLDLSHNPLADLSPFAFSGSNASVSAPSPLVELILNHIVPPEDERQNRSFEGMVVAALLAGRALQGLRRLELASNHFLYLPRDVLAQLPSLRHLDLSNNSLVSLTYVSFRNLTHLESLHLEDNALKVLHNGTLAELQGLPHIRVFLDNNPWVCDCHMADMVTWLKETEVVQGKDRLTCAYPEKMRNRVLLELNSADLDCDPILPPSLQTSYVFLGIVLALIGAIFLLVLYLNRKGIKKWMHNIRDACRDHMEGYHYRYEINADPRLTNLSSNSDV

T2: biotinylated recombinant TPBG protein (Homo sapiens (Human), UniProt Q13641 32-355, Biotinylated; the number and positions of the biotin labels are not stated and the letters do not carry them.)
T2 sequence: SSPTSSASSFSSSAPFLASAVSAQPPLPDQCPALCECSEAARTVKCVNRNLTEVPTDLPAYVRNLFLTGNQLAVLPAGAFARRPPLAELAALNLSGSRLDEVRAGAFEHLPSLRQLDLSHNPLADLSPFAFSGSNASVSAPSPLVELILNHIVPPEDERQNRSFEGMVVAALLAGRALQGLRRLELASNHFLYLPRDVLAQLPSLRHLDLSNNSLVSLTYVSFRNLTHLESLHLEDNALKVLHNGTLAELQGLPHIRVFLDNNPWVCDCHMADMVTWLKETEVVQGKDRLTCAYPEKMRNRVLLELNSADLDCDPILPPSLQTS

B1: 103E2E9C2 (antibody, V domains shown)
VH: EVQLQQSGPVLVKPGASVKMSCEASGYSFIDYYMSWVKQSRGRSLEWIGVFNPYSGEIIYNQKFKGKATLTVDKSSSTAYMELSSLTSEDSGVYSCARLRISYYAIDYWGQGTSVAVSS
VL: ENVLTQSPAIMSASPGEKVTMTCRATSSVSSGHFHWYQQKSGASPKVWIYSTSNLASGVPARFSGSGSGTSFSLTISSVEAEDVATYFCQQYSGYPLTFGGGTKLEIK
notes: Mouse hybridoma antibody purified from culture supernatant; also called TPBG antibody; lead antibody
B2: 39A11G5F2 (antibody, V domains shown)
VH: QVQLQQSGAELMKPGASMRLSCKATGYTFTGYWLEWIKRRPGHGLEWIGEILPGRGSTNYNEKFKGKATFTAETSSNTAYMQLTSLTTEDSAIYYCARGGRDFDNWGQGTTLTVSS
VL: DIQMTQSTSSLSASLGDRVTISCSASQGINNHLNWYQQKPDGTVKLLIYYTSSLHSGVPSRFSGSGSGTDYSLTISNLEPEDIAIYYCQQFSKLPYTFGGGTKVEMK
notes: as for B1
B3: 52C9E9F6 (antibody, V domains shown)
VH: QVQLQQSGAELMKPGASVKLSCKATGYTFTGYWIEWIKQRPGHGLEWIGEILPGRGSTDYNEKFKGKATFTADTSSNTAYMQLSSLTTEDSAIYYCTRGRLDFTYWGQGTLVTVSA
VL: B2 VL with S7T, N30R, H32Y, I85T, F91Y, L94V, Y96W, V104L, M106I
notes: as for B1
B4: 12B12C7C3 (antibody, V domains shown)
VH: DVQLVESGGGLVQPGGSRKLSCAASGFTFSNFGMHWVRQAPEKGLEWVAYISSGSTSFYYADTVKGRFTISRDNPKNTLFLQMTSLRSEDTAMYYCSRTNSLLRGFFDAWGAGTTVTVSS
VL: DIVLTQSPASLAVSLGQRATISCRASQSVSSSSYTYLHWYQQKPGQPPKLLIKSASNLESGVPARFSGTGSGTDFTLNIHPVEEEDTATYYCQHSWEIPLTFGAGTKLELK
notes: as for B1
B5: 106D5G3D10 (antibody, V domains shown)
VH: EVQLVESGGGLVKPGGSLKLSCAASGFTFSDYGMHWVRQAPEKGLEWVGYISSGTYVVYYADTVKGRFTISRDNAKNTLFLQMTSLRSEDTAIYYCSTYGSNPFDYWGQGTTLTVSS
VL: QLVLTQSPAIMSASPGEKVTITCSATSSVSSMHWFQQKPVTSPKLWIYSTSNLASGVPTRFSGSGSGTSYSLTISRMEAEDAATYYCQQRSGYPPIFTFGSGTKLEIK
notes: as for B1
B6: 5G4H10G5 (antibody, V domains shown)
VH: EVQLVESGGDLVQPGGSLKLFCAASGFTFSTYGLSWVRQTPDKRLELVATITNNDGSAYYPDSVKGRFTISRDKAKNTLFLQMTSLKSEDTAMYYCARETGFGSSYLFDYWGQGTLVTVSA
VL: NIVMTQTPKFLLVSAGDRVTITCKASQSVSNDVAWYQQKPGQSPKLLIYFATNRYTGVPNRFTGSGYGTEFTFTISSVQAEDLAVYFCQQDYSSPTFGGGTKLEIK
notes: as for B1
B7: 99E12C7H1 (antibody, V domains shown)
VH: QIQLVQSGPELKKPGETVKISCKPSGYTFTAYGLSWVKQAPGQGFQWMGWINTYSGVPTYTDDFKGRFAFSLETSAGTASLQITNLKNEDTATYFCARSSIPPFEYWGPGTTLTVSS
VL: SFVMTQSPKFLLVSVGDRVTITCKASQSVSNDVAWYQQKPGQPPRVLIYFASNRYTGVPDRFTGSGYGTDFTFTISTVQAEDLALYFCQQDYSSPWTFGGGTKLEIK
notes: as for B1
B8: 28D4E6A9 (antibody, V domains shown)
VH: DVQLVESGGGLVRPGGSLKLSCAASGFTFSNYVMSWARQSPEKRLEWVAEISTGGSHTYYSDTVTGRFTISRDNAKKALYLEMSSLRSEDTAIYYCIMFYYGSSYSMDYWGQGTSVTVSS
VL: DIQMTQSTSSLSASLGDRITISCRASQDIRNYLNWYQQKPDGTVKLLIYHTSRLHSGVPSRFSGSGSGTDYSLTISNLEQEDIATYFCQQGDTLPLTFGAGTRLELK
notes: as for B1
B9: 36A10D8B12 (antibody, V domains shown)
VH: DVQLQESGPGMVKPSQSLSLTCTVTGYSITSGYDWHWIRHFPGNKLEWMGYISYSGNTNYNPSLKSRISITHNTSKNHFFLRLNSVTTEDTATYYCARGYGNWDAMDYWGQGTSVTVSS
VL: DIVMTQSQKFMSTSVGDRVSVTCKASQIVDTNVAWYQQKPGQSPKALISSASYRYSGVPDRFTGSGSGTDFTLTISNVQSEDLAEYFCQQYNSYPLTFGAGTKLELT
notes: as for B1
B10: 37H9C5G2 (antibody, V domains shown)
VH: QVQLQQSDAELVRPGASVKMSCKVSGYTFTDHTIHWMKQRPEQGLEWIGYIYPRDGSGTYNEKFKGKATLTADKSSSTAYMQLNSLTSEDSAVYFCARDGSSHYWYFDVWGTGTTVTVSS
VL: DIQMTQSPASLSASVGETVTITCRASEIIYNYLAWYQQKQGKSPQLLVYNAKTLAEGVPSRFSGSYSGTQFSLNINSLQSEDFGIYYCQHHHDTPLTFGAGTKLDLK
notes: as for B1

As usually defined, the EC50 is the concentration at which the effect is half-maximal.

Numbering of substitutions follows the chain as printed.

The first assay deals with T1, human TPBG (full length, on cells). The experiment in a line: FACS on CHO-K1-hTPBG cells. An excerpt:
The stable cell lines CHO-k1-hTPBG, CHO-k1-cTPBG, CHO-k1-mTPBG (i.e. the CHO-k1-hTPBG 3A2F1, CHO-k1-cTPBG 3F13G4 and CHO-k1-mTPBG 3A3 shown in table 7) and CHO-K1 cells were expanded to a 90% of confluency in T-75 cell culture flasks, the culture medium were removed, and cells were then rinsed twice with HBSS buffer (Hanks Balanced Salt Solution, purchased from Invitrogen) and lysed with enzyme-free cell dissociation buffer (Versene solution purchased from Life technology) and harvested. Harvested cells were rinsed with HBSS buffer twice and counted before diluting with HBSS buffer to 2×10⁶ cells /mL, and 10% goat serum blocking buffer was then added, wherein the percentage is the mass percentage. Cells were incubated on ice for 30 min, and then washed twice with HBSS buffer by centrifugation. The harvested cells were resuspended with FACS buffer (HBSS+1% BSA, wherein the percentage is mass percentage) to a concentration of 2×10⁶ cells /mL. 100 μL per well of the cells was aliquoted to 96-well FACS reaction plates, and 100 μL per well of test sample—the purified TPBG antibody obtaining from Embodiment 2 was added before incubating on ice for 2 h. The plate was washed with the FACS buffer twice by centrifugation, and 100 μL per well of fluorescence (Alexa 488) labeled secondary antibody (purchased from Invitrogen) was then added and incubated on ice for 1 h. The plate was washed with the FACS buffer for three times by centrifugation, follow by resuspending in 100 μL of fixation buffer (4% (v/v) paraformaldehyde). Cells were washed with FACS buffer twice after 10 min, follow by resuspending with 100 μL of FACS buffer. The results were measured and analyzed by FACS (FACS Calibur, purchased from BD). Data analysis was performed by software (CellQuest) to obtain mean fluorescence intensity (MFI) of the cells, follow by calculating EC50 value by software (GraphPad Prism) analysis and data fitting. The analysis results were shown in Table 8 and FIGS. 7-10, and data in FIGS. 7-10 show the mean fluorescence intensity (MFI) of cells.
The molecule B1 displayed an EC50 of 0.85 nM.
In turn, B2 registered an EC50 of 2.34 nM. This EC50 lies about 2.8-fold higher than the previous one.
On the same count and under the same terms, for B3 the value was 3.27 nM.
Still for that read-out and setting: for B4 the value was 0.65 nM; for B5, 1.72 nM; for B6, 1.75 nM.
B7 registered an EC50 of 3.54 nM.
In the case of B8, a half-maximal response (EC50) required 0.63 nM.
On the same count and under the same terms, for B9 the value was 0.94 nM; for B10, 0.94 nM.

Another assay concerns the target T2, biotinylated recombinant TPBG protein. Put plainly: competitive ELISA; row antibody 5 ug/mL; competitor: coated 99E12C7H1. On the procedure: The purified antibodies to be tested were diluted to 1 μg/mL using PBS, and coated with high-adsorption of 96-well microplates at […]. After overnight coating at 4[…], 250 μL of blocking buffer (PBS containing 0.01% (v/v) Tween20 and 1% (w/w) BSA) was added to block coating at room temperature for 1 h, and 0.05 μg/mL of biotinylated recombinant TPBG protein was added to each well. Meanwhile, 5 μg/mL final concentration of competitive antibodies, i.e. the purified antibodies obtained from Embodiment 2 with the clone number of 12B12C7C3, 5G4H10G5, 37H9C5G2, 39A11G5F2, 52C9E9F6, 28D4E6A9, 36A10D8B12, 99E12C7H1, 103E2E9C2 and 106D5G3D10 were added and incubated at 25-37° C. for 1-2 h. The plates were washed three times with plate-washing buffer (PBS containing 0.01% (v/v) Tween20) and HRP (horseradish peroxidase)-labeled streptavidin (purchased from Sigma) was added. After incubating at 37° C. for 0.5 h, the plates were washed three times with plate-washing buffer (PBS containing 0.01% (v/v) Tween20), and 100 μL of TMB substrate was added to each well and the plates were further incubated at room temperature for 30 min prior to adding 100 μL of stop buffer (1.0N HCl) to each well. A₄₅₀ₙₘ values were read using an ELISA microplate reader (SpectraMax 384plus purchased from Molecular Device) and results were shown in FIG. 6. The higher the values of the competition rate, the closer the antigen surface of the two antibodies are.
For orientation: ELISA stands for enzyme-linked immunosorbent assay.
As for B1, the competition rate amounted to 3%.
Same read-out and setting: for B2 the value was 16%; for B3, 18%; for B4, 25%.
On the same count and under the same terms, for B5 the value was 11%; for B6, 95%.
Still for that read-out and setting: for B7 the value was 94%; for B8, 11%.
Take B9: the competition rate was found to be 25%.
On the same count and under the same terms, next, B10: 7%.
